From article PMC9253517 (The Journal of Experimental Medicine, 2022)

B1: JN223 (antibody, V domains shown)
VH: EVQLLESGGGLVQPGGSLRLSCAASRFTFSNFAMSWVRQAPGKGLEWVSAISGSGGSTYYADSVKGRFIISRDNSKNTLFLQMNSLRAEDTAVYFCAKDLPYDNTGARFDYWGQGTLVTVSS
VL: SYELTQPPSVSVSPGQTARITCSGDALPKKYAYWYQQKSGQAPVLVIYEDSKRPSGIPERFSGSSSGTMATLTISGAQVEDEADYYCYSTDSTGNHRGVFGGGTKLTVL
B2: JN008 (antibody, V domains shown)
VH: EVQLVESGGDLIQPGGSLRLSCAASGFTVSSNYMNWVRQAPGKGLEWVSIIYSGGSTFYADSVKGRFTISRDNSKNTLYLQMNSLRVEDTATYFCARSYGDYYFDSWGQGTLVTVSS
VL: EIVLTQSPATLSLSPGERATLSCRASQSVSSYLAWYQQKPGQAPRLLIYDASNRATGIPARFSGSGSGTDFTLTISSLEPEDFAVYYCQQRSNWPPSFTFGPGTKVDIK
B3: JN012 (antibody, V domains shown)
VH: QLQLQESGPGLVKPSETLSLTCTVSGGSISSGSYYWVWIRQPPGKGLEWIGSVYYSGTTYYNPSLKSRVTISIDTSKNQFSLRLSSVTAADTAVYYCATNNYSFLTGYYVLDYWGQGTLVTVSS
VL: SYELTQPPSVSVSLGQMARITCSGEALPKTYAYWYQQKPGQFPVLVIYKDSERPSGIPERFSGSRSGTIVTLTISGVQAEDEADYYCLSTDISGTWVFGGGTKLTVL
B4: JN028 (antibody, V domains shown)
VH: EVQLVESGGGLVQPGGSLRLSCAASGFTFSSYSMNWVRQAPGKGLEWVSYISSSSSTIYYADSVKGRFTISRDNAKNSLYLQMNSLRDEDTAVYYCAPLRVLGGMDVWGQGTTVTVSS
VL: SYELTQPPSVSVSPGQTARIICSGDALPKQYAYWYQQKPGQAPVLVIYKDSERPSGIPERFSGSSSGTTVTLTISGVQAEDEADYYCQSADSSGWVFGGGTKLTVL
B5: JN013 (antibody, V domains shown)
VH: QLQLQESGPGLVKPSETLSLTCTVSGGSISSSSYYWGWIRQPPGKGLEWIGSIYYSGSTYYNPSLKSRVTISVDTSKKQFSLKLSSVTAADTAVYYCARTYYDYIWGSLLGDFWGQGTLVTVSS
VL: QSALTQPRSVSGSPGQSVTISCTGTSSDVGGYNYVSWYQQHPGKAPKLMIYDVSKRPSGVPDRFSGSKSGNTASLTISGLQAEDEADYYCCSYAGSYWVFGGGTKLTVL
B6: JN017 (antibody, V domains shown)
VH: EVQLVESGGGLVQPGGSLRLSCAASGFTFTNHWMTWVRQAPGRGLEWVANIEGDGSDKYYVDSVKGRFTISRDNAKYSLYLHMNSLRGEDTAVYYCARHSGTYHGLDYWGQGTLVTVSS
VL: QSALTQPRSVSGSPGQSVTISCTGTSSDVGGYNYVSWYQEHPGKAPKLMIYDVSKRPSGVPDRFSSSKSGNTASLTISGLQAEDEADYYCYAFAGTTWMFGGGTKLTVL
B7: JN222 (antibody, V domains shown)
VH: EVQLVESGGGLVQPGGSLRLSCAASGFTFSRYWMSWVRQAPGKGLEWVANIKGDGKYYVDSLKGRFTISGDNAENSLYLQMNSLRAEDTAMYYCARYLAETGALDIWGQGTMVTVSS
VL: QSALTQPRAVSGSPGQSVTISCTGTSSDVGGYNYVSWYQQHPGKAPKLMIYDVSKRPSGVPDRFSGSKSGNTASLTISGLQAEDEADYYCYSFSGRYTSYVFGIGTKVTVL
B8: JN018 (antibody, V domains shown)
VH: QVQLQESGPGLVKPSETLSLTCTVSGGSISGSYWSWMRQPAGKPLEWIGRIYVSGSYNRNPSLSSRVTVSEDTAKNQISLRLTSVTAADTAVYYCAREIMGWYFDLWGRGTLVTVSS
VL: EIVMTQSPGTLSVSPGERATLSCRASQSVRSSLAWYQQKPGQAPRLLIYDASTRATGIPARFSGSGSGTEFTLTISSLQSEDFAIYLCQQYYNWPSYTFTQGTKLEIK
B9: JN030 (antibody, V domains shown)
VH: EVQLVESGGGLVKPGGSLRLSCAASGFTFSNYNMNWVRQAPGKGLEWVSSISTSGSFIYYADSVKGRFTISRDNAKNSLYLQMNSLRAEDTAVYYCARDTTPYSSGWYLWYFDLWGRGTLVTVSS
VL: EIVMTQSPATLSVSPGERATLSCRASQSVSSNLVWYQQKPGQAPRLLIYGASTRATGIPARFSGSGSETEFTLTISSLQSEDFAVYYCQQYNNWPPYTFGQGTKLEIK
B10: JN026 (antibody, V domains shown)
VH: QVQLQESGPGLVKPSETLSLTCTVSGGSISSYYWSWIRQPPGKGLEWIGYIYYSGSTNYNPSLKSRVTISVDTSKNQFSLKLSSVTAADTAVYYCARHSLTYYYDRSDYKGAFDIWGQGTMVTVSS
VL: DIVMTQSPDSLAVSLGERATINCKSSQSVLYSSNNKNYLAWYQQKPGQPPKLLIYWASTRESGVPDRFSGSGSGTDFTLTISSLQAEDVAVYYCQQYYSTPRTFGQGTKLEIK
B11: JN022 (antibody, V domains shown)
VH: QVQLQESGPGLVKPSETLSLTCTVSGDSIRNYYWSWIRQPPGKGLEWMGYIYYSGSTNYNPSLKSRVTISVDTSKNQFSLKLSSVTAADTAVYYCARHSLTYYYDSSDYKGAFDIWGQGTMVTVSS
VL: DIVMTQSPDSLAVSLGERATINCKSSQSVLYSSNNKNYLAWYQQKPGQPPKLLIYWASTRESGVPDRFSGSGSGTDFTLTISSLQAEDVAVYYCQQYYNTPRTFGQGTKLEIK
B12: JN219 (antibody, V domains shown)
VH: QLQLQESGPGLVKPSETLSLTCTVSGGSISSSSYYWGSYYWGWIRQPPGKGLEWIASIYYSGTTYYNPSLKSRVTISVDTSKNQFSLKLSSVTAADTAVYYCASRYCSGGSCSLDYWGQGTLVTVSS
VL: QSALTQPRSLSGSPGQSVTISCTGTSSDVGSYNYVSWYQQHPGKAPKLMIYDVSKRPSGVPDRFSGSKSGNTASLTISGLQAEDEADYYCCSYAGSYTLWVFGGGTKLTVL
B13: JN015 (antibody, V domains shown)
VH: QLQLQESGPGLVKPSETLSLTCTVSGGSISGSSYYWGWIRQPPGKGLEWFGSIYYSGTTYYNPSLKSRVAISVDTSKKQFSLKLSSVTAADTAVYYCAARYFDWSVEYWGQGTLVTVSS
VL: QSALTQPRSVSGSPGQSVTISCTGTSSDVGGYNYVSWYQQQPGKAPKLMIYDVSKRPSGVPDRFSGSKSGNTASLTISGLQAEDEADYHCCSYAGSYTYWLFGGGTKLTVL
B14: JN218 (antibody, V domains shown)
VH: EVQLVESGGGLVKPGGSLRLSCAASGFTFSSYTMNWVRQAPGKGLEWVSSISTGSSNIYYTDSVKGRFTISRDNARNSLSLQMNSLRAEDTAVYYCAREGRFIGTGYWSDFSYALDVWGQGTTVTVSS
VL: EIVLTQSPGTLSLSPGERATLSCRASQSVSSSSLAWYQQTPGQAPRLLIYGASSRATGIPDRFSGSGSGTDFTLTISRLEPEDFAVYYCQQYGSSVGAFGQGTKLEIK
B15: JN010 (antibody, V domains shown)
VH: EVQLVESGGDLIQPGGSLKLSCAASGVTVSSNYMTWVRQAPGKGLEWVSLIYSGGSTFYADSVKGRFTISRDNSKNTLYLLMNSLRVEDTAVYYCARDLRYYGMDVWGQGTTVTVSS
VL: QTVVTQEPSFSVFPGGTVTLTCGLSSGSVSTNNYPTWYQQTPGQPPRTLIYSTDTRSSGVPDRFFGSILGNKAALTITGTQADDESHYYCVLLVGSGANAKWVFGGGTKLTVL
B16: JN003 (antibody, V domains shown)
VH: EVQLVESGGGLVQPGGSLRLSCAASGFTFNSYWMTWIRQAPGKGLEWVANIAPDGSDTYYVDSVRGRFIISRDNAKNSLYLHMNSLRPEDTAVYYCANTPAAVGEYWGQGTLVTVSS
VL: QAVVTQEPSLSVSPGGTVTVTCGLSSGSVSTNNYPTWYQQTPGQPPRTLMYSTNTRSPGVLDRFSGSILGNKAALTITGAQADDESHYYCVLLVGSGANAKWVFGGGTKLTVL

Each binder was assayed against SARS-CoV-2 Wuhan-Hu-1 NTD (SARS-CoV-2, UniProt P0DTC2 14-307) (assay: cell-based or functional assay).

B1 and B2 cannot be ordered by “neutralisation IC50, WT (293TAce2)” value: > 1 µg/mL for the first, > 1 µg/mL for the second.

B3 and B4 cannot be ordered by “neutralisation IC50, WT (293TAce2)” value: > 1 µg/mL for the first, > 1 µg/mL for the second.

B5 and B6 cannot be ordered by “neutralisation IC50, WT (293TAce2)” value: > 1 µg/mL for the first, > 1 µg/mL for the second.

B7 and B8 cannot be ordered by “neutralisation IC50, WT (293TAce2)” value: > 1 µg/mL for the first, > 1 µg/mL for the second.

Going from B9 to B10, the “neutralisation IC50, WT (293TAce2)” value rises from 0.348 µg/mL to > 1 µg/mL.

B11 and B12 cannot be ordered by “neutralisation IC50, WT (293TAce2)” value: > 1 µg/mL for the first, > 1 µg/mL for the second.

B13 and B14 cannot be ordered by “neutralisation IC50, WT (293TAce2)” value: > 1 µg/mL for the first, > 1 µg/mL for the second.

B15 and B16 cannot be ordered by “neutralisation IC50, WT (293TAce2)” value: > 1 µg/mL for the first, > 1 µg/mL for the second.
